These are literature values, as cited in PMC7229808.

The data set concerns the target PCNA (Saccharomyces cerevisiae) (UniProt P15873). Briefly: NMR titration.
UniProt P15873, sequence (P15873 whole entry): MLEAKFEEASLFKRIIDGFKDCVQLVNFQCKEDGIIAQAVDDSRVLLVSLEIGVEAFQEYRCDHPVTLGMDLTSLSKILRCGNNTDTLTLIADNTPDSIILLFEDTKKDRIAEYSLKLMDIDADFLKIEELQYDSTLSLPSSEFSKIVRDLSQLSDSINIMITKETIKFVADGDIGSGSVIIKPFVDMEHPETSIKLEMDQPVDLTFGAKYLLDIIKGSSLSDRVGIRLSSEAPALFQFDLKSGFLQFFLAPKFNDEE

One may read the Kd as the free concentration of one partner at which half of the binding sites on the other are occupied at equilibrium, for simple one-to-one binding. As for Rev1 BRCT (from UniProt P12689), the Kd was 78 µM.
